2 molecules from PMC11347137, “Cytosine analogues as DNA methyltransferase substrates” can be followed below.

The data set has as its target M.MpeI (called wild type) (Mycoplasma penetrans? (printed "M. …, UniProt Q8EVR5 1-395, Q68R;K71R;S295P)). Kind of data set: EMSA; 80 uM SAM, 1 mM DTT, 10 mM MgCl2; non-covalent complex among the most abundant; EMSA: 10 mM Tris-HCl pH 7.9, 50 mM NaCl, 10 mM MgCl2, 1 mM DTT, 80 uM SAM, 37 C 1 h, 1 uM DNA, 0.5-4 uM protein; covalent SDS-PAGE: 10 mM Tris-HCl pH 7.9, 50 mM NaCl, 160 uM SAM or sinefungin, +/-10 mM DTT, 37 C. The note with it: protein: recombinant; tags: C-terminal LEHHHHHH; label: 5' Cy3 or 5' 32P on strand 2; blunt.

B1: 30-5mZ / 30-5mC-down (dsDNA)
DNA 1: CAGCATTATCACAGCGTTTACACAATAACC
DNA 2: GGTTATTGTGTAAACGCTGTGATAATGCTG
modifications: 5-methyl-2-pyrimidinone (5-methylzebularine) at position 15 of strand 1 (written C); 5mC at position 15 of strand 2
As to B1, the binding result is “binds”.

B2: 30-dhaC / 30-5mC-down (dsDNA)
DNA 1: CAGCATTATCACAGCGTTTACACAATAACC
DNA 2: GGTTATTGTGTAAACGCTGTGATAATGCTG
modifications: 5,6-dihydro-5-azacytosine at position 15 of strand 1 (written C); 5mC at position 15 of strand 2
Take B2: the binding result is recorded as “binds”.
